# Experimental data from article PMC11602913 (EJNMMI Radiopharmacy and Chemistry, 2024).
# Assays:
# [1] = DOTA and its derivatives; ref Mirzadeh et al. [1993]; Bauer et al. [2024]; cited from earlier work
# Text: (§1) The well-known chelator DOTA and its derivatives tend to lose up to 40% of ^212Bi from its ^212Pb-complexes due to β^–-conversion accompanied by 38% conversion electrons and a cascade of Auger-Meitner electrons (Mirzadeh et al. [1993]; Bauer et al. [2024]). […] PSC-PEG2-TOC (VMT-α-NET) is a somatostatin receptor subtype 2 (SSTR2) targeting peptide of very high stability for the treatment of neuroendocrine tumours ...
# [2] = test system: somatostatin receptor subtype 2 (SSTR2); details: ref Li et al. [2023]; cited from earlier work
# Text: as §1
# [3] = Stability of the 212Pb-labelled product at room temperature (radio-TLC); assay type: physicochemical
# Description: Since the radiolysis and alpha decay is often discussed as fatal for the radiolabelled molecules in solution (Roscher et al. [2020]), the stability of the ^212Pb-labelled product was tested at room temperature. A TLC sample was taken from the product vial 4 h after radiosynthesis. Right after development of the TLC strip, > 20% of activity was found as unbound activity at the front of the TLC (Fig. S3). […] The activity at the front of the TLC was mainly due to free ^208Tl, which is reasonable due to 36% direct alpha decay from ^212Bi.
# RCP was monitored by thin-layer chromatography (TLC) on iTLC-SG plates (Agilent, Santa Clara, California, USA). Measurement of the radionuclidic purity (RNP) and evaluation of the radio-TLC and was performed with a thin-layer scanner (MiniScanPRO + , Eckert&Ziegler Eurotope GmbH, Berlin, Germany) equipped with a Model 43–2 alpha detector ZnS(Ag) scintillator (Ludlum Measurements, Sweetwater, Texas, USA) and a built-in multi-channel analyzer for gamma spectroscopy.
# [4] = test system: neuroendocrine tumours (NET); assay: Individual patient application of the 212Pb-labelled peptide; assay type: in vivo, human; details: patients, doses of 1–1.5 MBq/kg
# Description: The precursor concentration (0.1 µg/MBq) results in a maximum mass of 50 µg (31.7 nmol) for 500 MBq ^212Pb-labelled peptide, which is half to the mass used for routine ^177Lu-preparations with 5000 MBq (Brogsitter et al. [2017]). At this concentration, any ^212Bi generated during the reaction time by free ^212Pb is rebound by the precursor (Li et al. [2023]). Typically, doses of 1–1.5 MBq/kg were administered per patient. […] The detailed results of patient treatments will be discussed in a further publication.
molecule,measurement,setting,value
O=C(O)CN1CCN(CC(=O)O)CCN(CC(=O)O)CCN(CC(=O)O)CC1 [DOTA],loss of 212Bi from 212Pb-complexes due to β−-conversion,[1],up to 40%
PSC-PEG2-TOC [VMT-α-NET],renal excretion,[2],fast renal excretion
same,tumour accumulation,[2],rapid tumour accumulation
same,tumour retention,[2],high tumour retention
[^212Pb]Pb-PSC-PEG2-TOC [[^212Pb]Pb-VMT-α-NET],free 212Bi together with free 208Tl daughter nuclides observed in the TLCs,"[3]; 4 h after radiosynthesis, radio-TLC",up to 20%
same,spot for unbound radionuclides on TLC,"[3]; product vial at room temperature, TLC sample taken 4 h after radiosynthesis, measured 10 h after development of the TLC strip, iTLC-SG, citrate eluant (Fig. S4)",below 5%
same,unbound activity at the front of the TLC,"[3]; product vial at room temperature, TLC sample taken 4 h after radiosynthesis, measured right after development of the TLC strip, iTLC-SG, citrate eluant (Fig. S3)",> 20%
same,radiolysis of the 212Pb-labelled product,"[3]; room temperature, within 4 h after radiosynthesis, radio-TLC",no significant radiolysis
same,disease response in individual patient application,[4],stable disease for more than six months
